In patent publication US20250250357A1 (NANJING ZAIMING PHARMACEUTICAL, published 2025) one finds OD450 data, which are given here for three molecules.

Assay [1] has as its target T1, human MSLN-R1-his protein (human, UniProt Q13421 296-390).
T1 construct: Region 1 of human mesothelin, made in HEK293E cells, His-tagged; also called human MSLN-R1 protein; hMSLN-R1-his; not shown: His tag
T1 chain: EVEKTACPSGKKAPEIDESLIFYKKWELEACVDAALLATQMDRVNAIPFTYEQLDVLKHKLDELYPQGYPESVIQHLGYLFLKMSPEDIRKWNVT
The assay can be described thus: ELISA on coated MSLN-R1; antibody 0.001 nM. Background: ELISA stands for enzyme-linked immunosorbent assay.

The target in assay [2] is T2, human MSLN-R3-his protein (human, UniProt Q13421 487-598).
T2 construct: Region 3 of human mesothelin, made in HEK293E cells, His-tagged; also called human MSLN-R3 protein; hMSLN-R3-his; not shown: His tag
The assay can be described thus: ELISA on coated MSLN-R3; antibody 0.0001 nM.

In assay [3] the target is T3, human MSLN-R2-his protein (human, UniProt Q13421 391-486).
T3 construct: Region 2 of human mesothelin, made in HEK293E cells, His-tagged; also called human MSLN-R2 protein; hMSLN-R2-his; not shown: His tag
The assay can be described thus: ELISA on coated MSLN-R2; no antibody (blank).

In assay [4] the target is T2, human MSLN-R3-his protein. Briefly: ELISA on coated MSLN-R3; antibody 0.001 nM.
In assay [5] the target is T2, human MSLN-R3-his protein. Briefly: ELISA on coated MSLN-R3; antibody 0.01 nM.
Assay [6] deals with T1, human MSLN-R1-his protein. Briefly: ELISA on coated MSLN-R1; no antibody (blank).
Protocol: (§1) The plate was sealed with a plastic film and incubated at 4° C. overnight. The next day, the plate was washed twice with PBST, and a blocking buffer [PBS+2% (w/w) BSA] was added for blocking at room temperature for 2 h. The blocking buffer was discarded, and a chimeric antibody or negative control antibody serially diluted from 100 nM was added at 50 μL/well. After incubation at 37° C. for 2 h, the plate was washed 3 times with PBST. […] After incubation at 37° C. for 2 h, the plate was washed 5 times with PBST. A TMB substrate was added at 50 μL/well for incubation at room temperature for 5-10 min, and then a stop solution (1.0 N HCl) was added at 50 μL/well.
In assay [7] the target is T1, human MSLN-R1-his protein. Briefly: ELISA on coated MSLN-R1; antibody 0.1 nM.
Protocol: as §1
Assay [8] concerns the target T1, human MSLN-R1-his protein. The assay can be described thus: ELISA on coated MSLN-R1; antibody 0.01 nM.
The target in assay [9] is T1, human MSLN-R1-his protein. Briefly: ELISA on coated MSLN-R1; antibody 0.0001 nM.
Protocol: as §1
For assay [10], the target named is T1, human MSLN-R1-his protein. Briefly: ELISA on coated MSLN-R1; antibody 10 nM.
Protocol: as §1
The target of assay [11] is T3, human MSLN-R2-his protein. The assay can be described thus: ELISA on coated MSLN-R2; antibody 100 nM.
The target of assay [12] is T3, human MSLN-R2-his protein. The assay can be described thus: ELISA on coated MSLN-R2; antibody 0.0001 nM.
Protocol: as §1
The target in assay [13] is T1, human MSLN-R1-his protein. The assay can be described thus: ELISA on coated MSLN-R1; antibody 100 nM.
Assay [14] addresses T2, human MSLN-R3-his protein. The assay can be described thus: ELISA on coated MSLN-R3; antibody 0.1 nM.
Assay [15] concerns the target T3, human MSLN-R2-his protein. The assay can be described thus: ELISA on coated MSLN-R2; antibody 0.1 nM.
Assay [16] deals with T3, human MSLN-R2-his protein. Briefly: ELISA on coated MSLN-R2; antibody 10 nM.
Protocol: as §1
The target of assay [17] is T2, human MSLN-R3-his protein. The assay can be described thus: ELISA on coated MSLN-R3; antibody 100 nM.
Protocol: as §1
Assay [18] has as its target T3, human MSLN-R2-his protein. Briefly: ELISA on coated MSLN-R2; antibody 0.001 nM.
Protocol: as §1
For assay [19], the target named is T2, human MSLN-R3-his protein. Briefly: ELISA on coated MSLN-R3; no antibody (blank).
Assay [20] has as its target T3, human MSLN-R2-his protein. The assay can be described thus: ELISA on coated MSLN-R2; antibody 1 nM.
Protocol: as §1
In assay [21] the target is T3, human MSLN-R2-his protein. Briefly: ELISA on coated MSLN-R2; antibody 0.01 nM.
For assay [22], the target named is T2, human MSLN-R3-his protein. The assay can be described thus: ELISA on coated MSLN-R3; antibody 10 nM.
Protocol: as §1
Assay [23] deals with T1, human MSLN-R1-his protein. Briefly: ELISA on coated MSLN-R1; antibody 1 nM.
Protocol: as §1
For assay [24], the target named is T2, human MSLN-R3-his protein. Briefly: ELISA on coated MSLN-R3; antibody 1 nM.

T2 sequence (Q13421 495-606): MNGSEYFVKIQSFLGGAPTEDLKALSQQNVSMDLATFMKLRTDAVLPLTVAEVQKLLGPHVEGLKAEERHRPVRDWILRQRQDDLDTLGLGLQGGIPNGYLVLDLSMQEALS
T3 sequence (Q13421 other isoform, or with tags, fused parts or gaps): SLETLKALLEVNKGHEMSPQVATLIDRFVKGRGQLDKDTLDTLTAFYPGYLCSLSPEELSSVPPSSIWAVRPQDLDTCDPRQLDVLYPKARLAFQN

B1: S009-F8-13.8 (antibody, human IgG1, kappa, V domains shown)
VH: EFQLQQSGPELVKPGASVKISCKASGYSFTDYNMNWVKQTNGKSLEWIGIINPNYGTSSYNQKFKGKATLTVDQSSSTAYMQLNSLTSEDSAVYYCARVGRDNSGFDYWGQGTTLTVSS
VL: QIVLTQSPAIMSASPGEKVTMTCSASSSVSYMYWYQQKPGSSPRLLIYDTSNLASGVPVRFSGSGSGTSYSLTISRMEAEDAATYYCQQWSSYPPTFGSGTELEIKR
As for B1, the OD450 came out at 0.08 OD450 in [1]; 0.04 OD450 in assay [2]; 0.05 OD450 in assay [3]; 0.05 OD450 in assay [4]; 0.04 OD450 in assay [5]; 0.05 OD450 in assay [6]. Also, the OD450 is 1.26 OD450 in [7]; 0.28 OD450 in assay [8]; 0.05 OD450 in [9]; 2.1 OD450 in [10]; 0.06 OD450 in [11]; 0.05 OD450 in [12]. The OD450 in assay [13] came out at 2.35 OD450; in assay [14], 0.04 OD450; in [15] it was 0.05 OD450; in [16], 0.05 OD450; in assay [17], 0.06 OD450; in assay [18], 0.05 OD450. The OD450 in assay [19] came out at 0.05 OD450; in assay [20], 0.04 OD450; in assay [21], 0.04 OD450; in assay [22] it was 0.05 OD450; in [23], 1.8 OD450; in assay [24] it was 0.04 OD450.

B2: S009-F8-12.13 (antibody, human IgG1, kappa, V domains shown)
VH: QVQLQQPGAELVKPGASVKLSCKASGYTFTSYWMHWVKQRPGQGLEWIGMIHPNSGSTNYNEKFKSKATLTVDKSSSTAYMQLSSLTSEDSAVYYCARRTPIITLVGHWYFDVWGTGTTVTVSS
VL: DIVMTQSHKFMSTSVGDRVSITCKASQDVGTAVAWYQQKPGQSPKLLIYWASTRHTGVPDRFTGSGSGTDFTLTISNVQSEDLADYFCQQYSSYPLTFGAGTKLELKR
For the molecule B2, the OD450 in assay [1] turned out to be 0.52 OD450; in assay [2], 0.04 OD450; in assay [3], 0.05 OD450; in assay [4], 0.05 OD450; in [5] it was 0.04 OD450; in assay [6], 0.05 OD450. In addition, the OD450 in assay [7] was 1.97 OD450; in [8] it was 1.18 OD450; in assay [9], 0.32 OD450; in assay [10], 2.16 OD450; in assay [11], 0.15 OD450; in assay [12], 0.04 OD450. For the same molecule, the OD450 turned out to be 2.17 OD450 in assay [13]; 0.05 OD450 in [14]; 0.05 OD450 in assay [15]; 0.07 OD450 in assay [16]; 0.2 OD450 in assay [17]; 0.04 OD450 in assay [18]. Moreover, the OD450 in assay [19] turned out to be 0.05 OD450; in assay [20], 0.05 OD450; in assay [21], 0.05 OD450; in assay [22], 0.1 OD450; in assay [23] it was 2.06 OD450; in assay [24], 0.06 OD450.

B3: S009-F8-9.16 (antibody, human IgG1, kappa, V domains shown)
VH: EVHLQQSGPVLVKPGASVKMSCKASGYTFTDYFMNWVKQSHGKSLEWIGVINPHNGYVNYNQKFQGRATLTVDKSSSTVYMELNSLTSEDSAVYHCARSAESAWFAYWGQRTLVTVSA
VL: DVLMTQTPLSLPVSLGDQVSISCRSSQSIVHVKGNTYLEWYLQKPGQSPELLIYKVSNRFSGVPDRFSGGGSGTDFTLKISRVEPEDLGVYYCFQGSHLPYTFGGGTKLEIKR
As for B3, the OD450 in assay [1] is 0.04 OD450; in assay [2] it was 0.06 OD450; in [3], 0.05 OD450; in [4], 0.11 OD450; in assay [5], 0.5 OD450; in assay [6], 0.04 OD450. Moreover, the OD450 in assay [7] was 0.04 OD450; in assay [8] it was 0.04 OD450; in [9], 0.04 OD450; in [10] it was 0.05 OD450; in assay [11], 0.07 OD450; in assay [12], 0.04 OD450. The OD450 in assay [13] came out at 0.09 OD450; in [14], 1.38 OD450; in assay [15], 0.04 OD450; in assay [16] it was 0.05 OD450; in [17], 2.4 OD450; in [18], 0.04 OD450. In addition, the OD450 worked out at 0.03 OD450 in assay [19]; 0.04 OD450 in assay [20]; 0.04 OD450 in assay [21]; 2.03 OD450 in assay [22]; 0.04 OD450 in assay [23]; 2.23 OD450 in assay [24].
